This experiment addresses Class A TC protein XptA2wi (Xenorhabdus nematophilus xwi). The experiment is described as follows: cell-based or functional assay.

In the case of TcdB2+TccC3 complex (non fused), the killing/stunting activity against corn earworm larvae, XptA2 held constant at 250 ng/cm^2 amounted to 7.8 ng/cm^2.

For the origin of these results see patent US20100041610A1.
